Results on one protein are retold here after paper doi:10.1101/844506v1.

Substrate in this data set: O=[N+]([O-])c1ccc(O[C@@H]2O[C@H](CO)[C@@H](O)[C@H](O)[C@H]2O)cc1
The experiment in a line: purified protein. To be noted: no added glucose.

B1: B8CYA8 (β-glucosidase from Halothermothrix orenii) (Halothermothrix orenii H 168) (protein)
chain: MAKIIFPEDFIWGAATSSYQIEGAFNEDGKGESIWDRFSHTPGKIENGDTGDIACDHYHLYREDIELMKEIGIRSYRFSTSWPRILPEGKGRVNQKGLDFYKRLVDNLLKANIRPMITLYHWDLPQALQDKGGWTNRDTAKYFAEYARLMFEEFNGLVDLWVTHNEPWVVAFEGHAFGNHAPGTKDFKTALQVAHHLLLSHGMAVDIFREEDLPGEIGITLNLTPAYPAGDSEKDVKAASLLDDYINAWFLSPVFKGSYPEELHHIYEQNLGAFTTQPGDMDIISRDIDFLGINYYSRMVVRHKPGDNLFNAEVVKMEDRPSTEMGWEIYPQGLYDILVRVNKEYTDKPLYITENGAAFDDKLTEEGKIHDEKRINYLGDHFKQAYKALKDGVPLRGYYVWSLMDNFEWAYGYSKRFGLIYVDYENGNRRFLKDSALWYREVIEKGQVEAN
For the protein B1, the Km is 1800 ± 100 µM and the kcat worked out at 339.0 ± 28.3 s⁻¹.

As a reminder, the Km is the substrate concentration at which the rate is half of its maximum. The term kcat denotes the maximal rate divided by the concentration of active sites.
